Source: US8008074B2, “Compositions and methods for improving bone mass through modulation of receptors of PTH and fragments thereof” (The UAB Research Foundation, priority 2006, dated 2011)

Tests used:
PTH1R-TβRII interaction = biological target: T1, PTH1R-TβRII interaction (Homo sapiens, UniProt P37173+Q03431); assay: YFP protein-fragment complementation assay, TβRII-YFP1 and PTH1R-YFP2; assay type: cell-based; conditions: both constructs expressed; plasma membrane
T1 construct: expressed in transfected cells
Description: A yellow fluorescent protein (YFP)-based protein-fragment complementation assay (PCA) was employed (Remy et al., 2004). YFP1 fragment was fused into the C-terminal of TβRII. YFP2 fragment was fused into the C-terminal of PTH1R. The PCA strategy was to facilitate visualization of the PTH1R-TβRII interaction through reconstituted YFP in living cells when the interaction brings the complementary fragments of the YFP into close proximity.
The PTH^TMR was then employed in the PCA experiment. […] Almost all the reconstituted YFP associated with PTH^TMR. The observation was further confirmed by the immunostaining of TβRII and PTH1R in the PTH^TMR-treated cells. TβRII, PTH1R, and PTH ligand predominantly colocalize into the same cytoplasmic vesicles (data not shown).

TGFβ/Smad signaling = TGFβ/Smad signaling after PTH pretreatment; assay type: cell-based; conditions: C2C12 cells; TGFβ stimulation
Experimental: Panel B is a graph showing the decrease in activity from the SBE-luciferase reporter in the presence of PTH and PTH1R.
It has been reported that TGFβ-induced endocytosis of TGFβ/TβRII is mediated by Sara endosome. The response of TβRII to PTH was analyzed to determine whether it is the same as to TGFβ. […] The observation was confirmed by TGFβ-induced interaction between Smad2 and Smad4.

T1 sequence (Q03431 27-593): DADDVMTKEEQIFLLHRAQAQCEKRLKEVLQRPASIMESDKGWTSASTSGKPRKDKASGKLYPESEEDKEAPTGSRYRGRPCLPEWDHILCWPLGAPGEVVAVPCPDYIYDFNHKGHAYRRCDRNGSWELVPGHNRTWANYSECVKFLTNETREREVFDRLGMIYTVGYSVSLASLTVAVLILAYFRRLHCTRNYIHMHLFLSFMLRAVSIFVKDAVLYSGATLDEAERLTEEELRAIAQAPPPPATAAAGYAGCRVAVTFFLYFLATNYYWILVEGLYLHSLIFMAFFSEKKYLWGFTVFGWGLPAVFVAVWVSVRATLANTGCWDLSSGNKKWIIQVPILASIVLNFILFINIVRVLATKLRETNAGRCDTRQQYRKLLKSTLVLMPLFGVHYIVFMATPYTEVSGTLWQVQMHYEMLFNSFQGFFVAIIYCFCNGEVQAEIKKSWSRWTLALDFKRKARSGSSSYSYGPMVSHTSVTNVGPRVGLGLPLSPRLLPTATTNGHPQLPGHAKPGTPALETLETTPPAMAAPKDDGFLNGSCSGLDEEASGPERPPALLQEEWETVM
T1 sequence (P37173 23-567): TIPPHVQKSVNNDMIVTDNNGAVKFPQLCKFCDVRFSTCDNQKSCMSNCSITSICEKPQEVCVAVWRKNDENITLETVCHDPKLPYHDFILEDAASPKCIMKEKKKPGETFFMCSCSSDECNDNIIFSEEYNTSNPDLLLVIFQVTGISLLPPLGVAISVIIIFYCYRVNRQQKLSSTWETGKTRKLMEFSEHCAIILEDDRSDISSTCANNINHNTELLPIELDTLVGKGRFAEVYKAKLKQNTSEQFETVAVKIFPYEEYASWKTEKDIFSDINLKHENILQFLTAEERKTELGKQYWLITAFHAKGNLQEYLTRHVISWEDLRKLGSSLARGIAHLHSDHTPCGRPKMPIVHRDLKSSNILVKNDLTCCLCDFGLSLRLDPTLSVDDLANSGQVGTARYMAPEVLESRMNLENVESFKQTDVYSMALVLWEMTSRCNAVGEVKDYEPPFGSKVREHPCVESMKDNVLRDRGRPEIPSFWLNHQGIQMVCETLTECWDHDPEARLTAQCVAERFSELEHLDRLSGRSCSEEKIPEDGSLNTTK

Substance: TGF-β1: TGF-β ligand used as stimulus and comparator
- YFP fluorescence from TβRII-YFP1 and PTH1R-YFP2 (PTH1R-TβRII interaction): did not show such an effect
- phosphorylation of Smad2 (TGFβ/Smad signaling): activated
